From patent US20180312587A1 (ADURO BIOTECH HOLDINGS EUROPE B V, published 2018)
Blank lines part the entries; values can stand above or below the binder they belong to.

Columns and labels:
human SIRPα variant 2 = biological target: T1, human SIRPα variant 2 (human, UniProt P78324 31-504); assay: CELISA, CHO-K1 transfectants
T1 construct: full length ORF on transfected CHO-K1 cells; also called hSIRPαV2; SIRPαV2
Method: (§1) The binding specificity of antibodies hSIRPα.40A and hSIRPα.50A to hSIRPα were compared in a CELISA format. In short, CHO-K1 cells were transiently transfected with hSIRPαV1, hSIRPαV2, hSIRPβ1, hSIRPβL, and hSIRPγ cDNAs. Subsequently, hSIRPα binding was assessed by CELISA using CHO-K1.hSIRPαV1, CHO-K1.hSIRPαV2, CHO-K1.hSIRPβ1, CHO-K1.hSIRPβL, and CHO-K1.hSIRPγ cells. Detection of bound antibody was done with goat-anti-mouse IgG-HRP (Southern Biotech).
(§2) In addition, the specificity of hSIRPα.40A for all known of hSIRPα alleles (allelic variants as described by Takenaka et al., Nat Immunol. 8:1313-1323 (2007) was further investigated by CELISA using the same strategy as above. To this end, hSIRPα.40A binding was assessed using CHO-K1 cells that were transiently transfected with cDNAs encoding full length hSIRPαV1, hSIRPαV2, hSIRPαV3 (NA07056_V3) (SEQ ID NO: 44), hSIRPαV4 (NA11832_V4) (SEQ ID NO: 46), hSIRPαV5 (NA18502_V5) (SEQ ID NO: 48), hSIRPαV6 (NA18507_V6) (SEQ ID NO: 50), hSIRPαV8 (NA18570_V8) (SEQ ID NO: 52), and hSIRPαV9 (NA18943_V9) (SEQ ID NO: 54).

hSIRPαV8 (NA18570_V8) = biological target: T2, hSIRPαV8 (NA18570_V8) (human, UniProt P78324 31-504); assay: CELISA, CHO-K1 transfectants
T2 construct: also called human SIRPαV8
Method: as §1, §2

hSIRPαV4 (NA11832_V4) = biological target: T3, hSIRPαV4 (NA11832_V4) (human, UniProt P78324 31-504); assay: CELISA, CHO-K1 transfectants
T3 construct: also called human SIRPαV4
T3 chain: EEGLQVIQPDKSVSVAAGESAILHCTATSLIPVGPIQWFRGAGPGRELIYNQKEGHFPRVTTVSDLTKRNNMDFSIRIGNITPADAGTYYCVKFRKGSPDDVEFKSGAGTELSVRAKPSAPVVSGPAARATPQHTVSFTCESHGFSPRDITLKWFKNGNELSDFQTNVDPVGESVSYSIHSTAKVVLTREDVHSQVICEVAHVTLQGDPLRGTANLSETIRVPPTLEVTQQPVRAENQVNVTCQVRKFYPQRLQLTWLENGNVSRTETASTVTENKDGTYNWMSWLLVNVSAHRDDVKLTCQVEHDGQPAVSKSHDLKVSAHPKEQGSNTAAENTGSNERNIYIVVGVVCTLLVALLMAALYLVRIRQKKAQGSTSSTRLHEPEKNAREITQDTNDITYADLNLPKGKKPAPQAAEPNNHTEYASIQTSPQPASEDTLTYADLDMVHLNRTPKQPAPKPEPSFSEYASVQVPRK
Method: as §1, §2

hSIRPαV3 (NA07056_V3) = biological target: T4, hSIRPαV3 (NA07056_V3) (human, UniProt P78324 31-504); assay: CELISA, CHO-K1 transfectants
T4 construct: also called human SIRPαV3
Method: as §1, §2

human SIRPα variant 1 [1] = biological target: T5, human SIRPα variant 1 (human, UniProt P78324 31-504); assay: CELISA, CHO-K1 transfectants, point mutant study
T5 construct: full length ORF on transfected CHO-K1 or HEK293 cells; entry includes the signal peptide; also called hSIRPαV1; SIRPαV1
Method: Amino acids in the hSIRPα IgV domain that are altered in hSIRPβ1 were mutated by using the QuikChange II Site-Directed Mutagenesis Kit (Stratagene) and the full length hSIRPαV1 sequence (SEQ ID NO: 33) as donor cDNA. Binding of hSIRPα.40A to hSIRPαV1 point mutants was tested using CELISA. To this end, CHO-K1 cells were transiently transfected, using Lipofectamine 2000, with cDNA encoding the full length open reading frame of hSIRPαV1 and mutants thereof, and hSIRPβ1 subcloned into the pCI-neo vector. Transfected cells were seeded in culture medium (DMEM-F12 (Gibco) supplemented with 5% New Born Calf Serum (BioWest) and Pen/Strep (Gibco)) in 96-well flat-bottom tissue culture plates and incubated at 37° C., 5% CO₂ and 95% humidity for 24 hours. Subsequently, culture medium was removed and cells were incubated for 1 hour at 37° C., 5% CO₂ and 95% humidity with purified hSIRPα antibodies (used at 10 μg/mL and dilutions thereof). Next, cells were washed with PBS-T and incubated for 1 hour at 37° C., 5% CO₂ and 95% humidity with goat-anti-mouse IgG-HRP (Southern Biotech). Subsequently, cells were washed three times with PBS-T and immunoreactivity against hSIRPαV1, hSIRPαV1 mutants, and hSIRPβ1 was visualized with TMB Stabilized Chromogen (Invitrogen). Reactions were stopped with 0.5 M H₂SO₄ and absorbances were read at 450 and 610 nm. […]
Target sequence in this assay (P78324 31-504 limits assumed, change not shown): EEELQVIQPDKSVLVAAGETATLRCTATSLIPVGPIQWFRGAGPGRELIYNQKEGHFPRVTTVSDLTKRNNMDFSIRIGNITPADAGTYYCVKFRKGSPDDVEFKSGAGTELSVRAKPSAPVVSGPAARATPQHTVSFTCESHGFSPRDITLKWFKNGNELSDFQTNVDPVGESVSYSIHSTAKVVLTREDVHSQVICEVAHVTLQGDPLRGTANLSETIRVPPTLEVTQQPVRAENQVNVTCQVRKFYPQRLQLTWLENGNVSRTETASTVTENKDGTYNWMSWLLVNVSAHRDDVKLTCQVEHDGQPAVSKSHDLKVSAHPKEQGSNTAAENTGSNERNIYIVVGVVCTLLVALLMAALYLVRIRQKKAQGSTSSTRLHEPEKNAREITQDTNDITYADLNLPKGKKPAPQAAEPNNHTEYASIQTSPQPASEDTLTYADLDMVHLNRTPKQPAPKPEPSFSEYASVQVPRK

human SIRPα variant 1 [2] = biological target: T5, human SIRPα variant 1; assay: flow cytometry, blockade of DyLight488-hCD47/Fc binding to U-937 cells
Method: hCD47 blockade for the KWAR23, clone 18D5, and hSIRPα.40A antibodies was assessed by flow cytometry. For this purpose, THP-1 (ATCC TIB-202) and U-937 (ATCC CRL-1593.2) monocyte cell lines were used as the source of hSIRPα in the assay. THP-1 and U-937 cells were seeded in 96-well round bottomed tissue culture plates and incubated for 45 minutes with FcR Blocking Reagent (Miltenyi Biotec) and indicated anti-hSIRPα antibodies (20 μg/mL and dilutions thereof) in PBS/1% BSA at 4° C. […] After this labeling procedure, cells were washed two times, resuspended in PBS/1% BSA containing 0.1 μg/mL DAPI (BioLegend), and analysed by flow cytometry on the FACSVerse (BD Biosciences). Data were processed and analysed with FlowJo V10 software (FlowJo, LLC) and plotted using GraphPad Prism 6 (GraphPad Software, Inc.). Binding of recombinant hCD47 fused to an Fc domain of human IgG1 was monitored in the presence of increasing amounts of the anti-hSIRPα antibodies. […] IC50 values represent the concentration at which half of the inhibition is observed.

EC50 (human SIRPα variant 2): 1.07 nM
EC50 (hSIRPαV8 (NA18570_V8)): 1.51 nM
EC50 (hSIRPαV4 (NA11832_V4)): 1.3 nM
EC50 (hSIRPαV3 (NA07056_V3)): 1.77 nM
EC50 (human SIRPα variant 1 [1]): 0.534 nM
B1: hSIRPα.50A (antibody, V domains shown)
VH: QVQLQQSGPELVKPGASVRISCKASGFTFTNYYIHWVKQRPGQGLEWIGWIYPGNVNTKYNEKFKAKATLTADKSSTTAYMQLSSLASEDSAVYFCARPTIIATDFDVWGAGTTVTVSS
VL: DIVMTQSHKFMSTSVGDRVNITCKASQGVGTAVGWYQQKPGQSPRLLIYWASTRHTGVPDRFTGSGSGTDFSLAISNVQSEDLADYFCQQYSTYPFTFGGGTNLEIK
notes: light chain constant domain not tied; also called mouse hSIRPα.50A; hSIRPα.50A.mIgG1

IC50 (human SIRPα variant 1 [2]): 1.42 nM
EC50 (human SIRPα variant 2): 0.089 nM
EC50 (hSIRPαV8 (NA18570_V8)): 0.089 nM
EC50 (hSIRPαV4 (NA11832_V4)): 0.1 nM
EC50 (hSIRPαV3 (NA07056_V3)): 0.107 nM
EC50 (human SIRPα variant 1 [1]): 0.065 nM
B2: hSIRPα.40A (antibody, mouse IgG1, kappa, V domains shown)
VH: EVQFQQSGTVLARPGTSVKMSCKASGSTFTSYWMHWVKQGPGQGLQWIGAIYPVNNDTTYNQKFKGKAELTVVTSTSTAYMEVSSLTNEDSAVYYCTRSFYYSLDAAWFVYWGQGTLVTVSA
VL: DIQMTQSPSSLSASLGERVSLTCRASQDIGSRLNWLQQEPDGTIKRLIYATSSLDSGVPKRFSGSRSGSDYSLTISGLESEDFVDYYCLQYASSPFTFGGGTKLEINR
notes: mouse antibody, full chains without signal peptide; also called mouse hSIRPα.40A

IC50 (human SIRPα variant 1 [2]): 0.284 nM
B3: KWAR23 (antibody, V domains shown)
VH: EVQLQQSGAELVKPGASVKLSCTASGFNIKDYYIHWVQQRTEQGLEWIGRIDPEDGETKYAPKFQDKATITADTSSNTAYLHLSSLTSEDTAVYYCARWGAYWGQGTLVTVSS
VL: QIVLTQSPAIMSASPGEKVTLTCSASSSVSSSYLYWYQQKPGSSPKLWIYSTSNLASGVPARFSGSGSGTSYSLTISSMEAEDAASYFCHQWSSYPRTFGAGTKLELK
